Three molecules from publication PMC11964227, “Critical functions and key interactions mediated by the RNase E scaffolding domain in Pseudomonas aeruginosa” (PLOS Genetics, 2025) can be followed below.

For one test, the target named is T1, T18-RNase E^1-1057 (P. aeruginosa, UniProt Q9HZM8 1-1057).
T1 construct: source: bacterial two-hybrid fusion (pUT18C), E. coli BTH101
The test can be described thus: two-hybrid; adenylate-cyclase-based bacterial two-hybrid in E. coli BTH101 (T18 and T25 fusions); MacConkey agar with maltose and IPTG, 30°C then room temperature; β-galactosidase activity with ONPG. The following applies: partners not purified.

A further test has as its target T2, His10Smt3-tagged PNPase (P. aeruginosa, UniProt Q9HV59 1-701).
T2 construct: Polyribonucleotide phosphorylase (PNPase), P. aeruginosa, pnp; also called His10-Smt3-PNPase; source: soluble bacterial lysates, purified (nickel-agarose)
T2 sequence (looked up): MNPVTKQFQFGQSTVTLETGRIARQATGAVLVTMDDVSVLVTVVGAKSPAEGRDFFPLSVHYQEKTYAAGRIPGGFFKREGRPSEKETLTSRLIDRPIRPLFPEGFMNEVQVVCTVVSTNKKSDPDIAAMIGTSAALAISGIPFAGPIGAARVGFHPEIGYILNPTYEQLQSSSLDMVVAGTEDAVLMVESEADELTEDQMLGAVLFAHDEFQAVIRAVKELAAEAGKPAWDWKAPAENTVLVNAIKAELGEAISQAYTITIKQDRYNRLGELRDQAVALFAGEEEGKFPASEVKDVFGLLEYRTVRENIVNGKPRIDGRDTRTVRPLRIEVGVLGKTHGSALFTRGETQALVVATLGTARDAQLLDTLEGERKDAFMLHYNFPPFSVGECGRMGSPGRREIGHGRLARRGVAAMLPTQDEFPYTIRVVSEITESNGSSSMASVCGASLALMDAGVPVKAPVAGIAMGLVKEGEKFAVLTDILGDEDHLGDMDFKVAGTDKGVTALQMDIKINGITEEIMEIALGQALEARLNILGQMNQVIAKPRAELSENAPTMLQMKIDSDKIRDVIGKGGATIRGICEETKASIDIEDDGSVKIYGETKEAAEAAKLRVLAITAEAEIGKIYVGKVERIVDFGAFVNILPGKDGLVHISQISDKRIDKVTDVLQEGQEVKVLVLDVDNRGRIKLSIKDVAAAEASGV
As to the kind of experiment: pull-down; purified Flag-tagged RNase E proteins (20-25 µg) immobilised on anti-Flag M2 magnetic beads, 5 µg of PNPase or RhlB in 100 µL buffer H (50 mM Tris-HCl pH 8.0, 150 mM NaCl, 0.01% Triton X-100), 1 hour at 4 °C; SDS-PAGE, Coomassie Blue. The following applies: both partners purified.

B1: T25-PNPase (enzyme, P. aeruginosa, UniProt Q9HV59 1-701, looked up)
chain: T2 sequence (looked up)
notes: Polyribonucleotide phosphorylase (PNPase), P. aeruginosa, pnp; source: bacterial two-hybrid fusion (pKT25), E. coli BTH101
For B1, the “fold increase of β-galactosidase activity compared to empty vector controls” value in the test with T18-RNase E^1-1057 is 11 fold.

B2: Flag-RNase E^572-1057 (domain or fragment, P. aeruginosa, UniProt Q9HZM8 572-1057, looked up)
chain: AAKPAETSKPAAERQTRQDERRNGRQQNRRRDGRDGNRRDEERKPREERAERQPREERAERPNREERSERRREERAERPAREERQPREGREERAERTPREERQPREGREGREERSERRREERAERPAREERQPREGREERAERPAREERQPREDRQARDAAALEAEALPNDESLEQDEQDDTDGERPRRRSRGQRRRSNRRERQREVSGELEGSEATDNAAAPLNTVAAAAAAGIAVASEAVEANVEQAPATTSEAASETTASDETDASTSEAVETQGADSEANTGETADIEAPVTVSVVRDEADQSTLLVAQATEEAPFASESVESREDAESAVQPATEAAEEVAAPVPVEVAAPSEPAATEEPTPAIAAVPANATGRALNDPREKRRLQREAERLAREAAAAAEAAAQAAPAVEEIPAVASEEASAQEEPAAPQAEEITQADVPSQADEAQEAVQAEPEASGEGAADTEHAKKTEESETSRPHA
notes: The results call the C-terminal tag 3xFlag, the methods Twin-Strep-Flag; also called RNase E CTD with no MTS; source: soluble bacterial lysates, purified (nickel-agarose, 250 mM imidazole fraction); not shown: His10-Smt3, N-terminal, kept; Twin-Strep-Flag, C-terminal, kept
Regarding B2, in the test with His10Smt3-tagged PNPase, the binding result is reported as “binds”.

B3: T25-RhlB (enzyme, P. aeruginosa, UniProt Q9HXE5 1-397, looked up)
chain: MVEPQEGKTRFHDFNLAPSLMHAIHDLGFPYCTPIQAQVLGFTLRGQDAIGRAQTGTGKTAAFLISIITQLLQTPPPKERYMGEPRALIIAPTRELVVQIAKDAAALTKYTGLNVMTFVGGMDFDKQLKQLEARFCDILVATPGRLLDFNQRGEVHLDMVEVMVLDEADRMLDMGFIPQVRQIIRQTPHKGERQTLLFSATFTDDVMNLAKQWTVDPAIVEIEPENVASDTVEQHVYAVAGSDKYKLLYNLVAQNNWERVMVFANRKDEVRRIEERLTKDGISAAQMSGDVPQHKRIRTLEGFREGKIRVLVATDVAGRGIHIDGISHVINFTLPEDPDDYVHRIGRTGRAGASGTSISFAGEDDAFALPPIEELLGRKITCEMPPAELLKPVPRKH
notes: RNA helicase RhlB, P. aeruginosa; source: bacterial two-hybrid fusion (pKT25), E. coli BTH101
For the molecule B3, the “fold increase of β-galactosidase activity compared to empty vector controls” value with T18-RNase E^1-1057 came to 5 fold.
